Results on one molecule are retold here after US20110189154A1 (published 2011).

This assay addresses T1, Tsa1 (S. cerevisiae 2-Cys peroxyredoxin) (S. cerevisiae, UniProt P34760 2-196).
T1 construct: Endogenous yeast protein after H2O2 treatment of the cells; also called Tsa1 protein
T1 sequence (looked up): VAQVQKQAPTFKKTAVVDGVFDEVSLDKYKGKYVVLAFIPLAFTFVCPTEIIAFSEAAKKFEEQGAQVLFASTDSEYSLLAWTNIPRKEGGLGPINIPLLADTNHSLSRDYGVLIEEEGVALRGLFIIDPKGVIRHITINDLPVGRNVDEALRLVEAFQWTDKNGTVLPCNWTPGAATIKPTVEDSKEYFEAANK
The assay can be described thus: Western blot of Srx1-HA after nonreducing/reducing SDS-PAGE (FIG. 7a). The protocol:
FIG. 7 illustrates the interaction between Tsa1 and Srx1 in a covalent (disulfide bridge) and noncovalent manner; FIG. 7a: Western blotting of the HA-tagged Srx1 protein (lanes 1, 2 and 3) or of HA-tagged Srx1^C84S (lane 4) expressed in a wild-type strain (WT) (lanes 1, 2, 4) or in Δtsa1 cells (lane 3) treated for 15 min with H₂O₂ (500 μM), after SDS-PAGE electrophoresis carried out under reducing (R) (lane 2) or nonreducing (NR) (lanes 1, 3, 4) conditions; FIG. 7b: the proteins copurified with the Srx1 tagged with 6His (lanes 2, 4) or the untagged Srx1 (lanes 1, 3) under nonreducing conditions are separated by SDS-PAGE under nonreducing (lanes 1, 2) or reducing (lanes 3, 4) conditions and visualized by Coomassie blue staining. The protein bands are identified by MALDI-TOF mass spectrometry as indicated;
(A) Cells containing a tagged (HA) copy of the Srx1 protein are treated with 500 μM of H₂O₂ for 15 minutes. […]

B1: Srx1-HA (S. cerevisiae Srx1 with two HA epitopes at the C-terminal) (enzyme, not shown: small tags and cut ends)
chain: MSLQSNSVKPTEIPLSEIRRPLAPVLDPQKIDAMVATMKGIPTASKTCSLEQAEAAASAGELPPVDVLGVRVKGQTLYYAFGGCHRLQAYDRRARETQNAAFPVRCRVLPATPRQIRMYLGSSLDIE
modifications: Two HA epitopes fused at the C-terminal of Srx1 (letters not given, left out). In the assay Cys84 forms an intermolecular disulfide bridge with Tsa1.
notes: also called HA-tagged Srx1 protein
As to B1, the binding result was “binds”.
